*1 amine or outer side, *2 acyl side, *3 side chain or, on linkers, in order; H or OH if unused. Where no end group is shown, it is not given here. [ ]: non-standard residue; d: D form. Trp(For) = Nin-formyl-tryptophan, O=Cn1cc(C[C@H](N[*:1])C(=O)[*:2])c2ccccc21; Tyr(Me) = O-methyl-tyrosine, COc1ccc(C[C@H](N[*:1])C(=O)[*:2])cc1; Phe(4-CONH2) = NC(=O)c1ccc(C[C@H](N)C(=O)O)cc1; Trp(1-Me) = Cn1cc(C[C@H](N)C(=O)O)c2ccccc21; Phe(4-Me) = Cc1ccc(C[C@H](N)C(=O)O)cc1; Cit = NC(=O)NCCC[C@H](N)C(=O)O; Lys(Me) = CNCCCC[C@H](N)C(=O)O
B1: HFCarbCitCitHL (peptide)
peptide: H[Phe(4-CONH2)][Cit][Cit]HL
B2: HWMetRGWMetV (peptide)
peptide: H[Trp(1-Me)]RG[Trp(1-Me)]V-{Toyopearl AF‑Amino‑650M resin}
B3: HWCitGWV (peptide)
peptide: HW[Cit]GWV-{Toyopearl AF‑Amino‑650M resin}
B4: HWForCitGWForV (peptide)
peptide: H[Trp(For)][Cit]G[Trp(For)]V
modifications: not fully specified (C-terminus)
B5: Ac-HWRGWV (peptide)
peptide: Ac-HWRGWV-{Toyopearl AF‑Amino‑650M resin}
B6: HYMetFMetKMetFMetD (peptide)
peptide: H[Tyr(Me)][Phe(4-Me)][Lys(Me)][Phe(4-Me)]D-{Toyopearl AF‑Amino‑650M resin}

What was measured:
[1] = molecular target: Human polyclonal immunoglobulin G (IgG) (human); test: affinity chromatography, peptide on Toyopearl resin, pure human IgG load; yield = IgG eluted/IgG loaded, by Protein G chromatography
[2] = molecular target: Human polyclonal immunoglobulin G (IgG) (human); test: affinity chromatography, peptide resin, 10 mg/mL hIgG in PBS; 3rd run, after alpha-chymotrypsin and then trypsin
[3] = molecular target: Human polyclonal immunoglobulin G (IgG) (human); test: affinity chromatography, peptide resin, 10 mg/mL hIgG in PBS; 2nd run, after resin contacted with alpha-chymotrypsin
[4] = molecular target: Human polyclonal immunoglobulin G (IgG) (human); test: affinity chromatography, peptide resin, 10 mg/mL hIgG in PBS; 1st run, before any enzyme
[5] = molecular target: Human polyclonal immunoglobulin G (IgG) (human); test: affinity chromatography of Cohn fraction II+III on peptide resin; binding buffer PBS + 0.25M NaCl
[6] = molecular target: Human polyclonal immunoglobulin G (IgG) (human); test: affinity chromatography of Cohn fraction II+III on peptide resin; binding buffer PBS + 0.13M NaCl
[7] = molecular target: Human polyclonal immunoglobulin G (IgG) (human); test: affinity chromatography of Cohn fraction II+III on peptide resin; binding buffer PBS + 0M NaCl

| Binder | IgG yield [1] | IgG yield [2] | IgG yield [3] | IgG yield [4] | IgG yield [5] | IgG yield [6] | IgG yield [7] |
| --- | --- | --- | --- | --- | --- | --- | --- |
| B1 | 53% | – | – | – | – | – | – |
| B2 | 91% | 82% | 91% | 91% | – | – | – |
| B3 | 91% | 71% | 73% | 91% | – | – | – |
| B4 | 75% | 69% | 69% | 75% | – | – | – |
| B5 | – | – | – | – | 83% | 84% | 91% |
| B6 | 49% | – | – | – | – | – | – |

Source: patent publication US10266566
